Data from US6972178B1, “Drug screening using a proline-rich nuclear receptor co-regulatory protein/nuclear receptor co-expression system” (City of Hope, priority 1999, dated 2005).

Assays:
[1] = target: T1, ERRα1 (Homo sapiens, UniProt P11474); assay: Yeast two-hybrid assay (HIS3 / β-galactosidase reporter); format: cell-based; conditions: no ligand
T1 construct: inserting the PCR-amplified ERRA-1 coding region into pGBT9 through an EcoRI site; expressed in transfected cells; host or cells: yeast Y187 x CG1945 diploids
T1 sequence (P11474 1-423): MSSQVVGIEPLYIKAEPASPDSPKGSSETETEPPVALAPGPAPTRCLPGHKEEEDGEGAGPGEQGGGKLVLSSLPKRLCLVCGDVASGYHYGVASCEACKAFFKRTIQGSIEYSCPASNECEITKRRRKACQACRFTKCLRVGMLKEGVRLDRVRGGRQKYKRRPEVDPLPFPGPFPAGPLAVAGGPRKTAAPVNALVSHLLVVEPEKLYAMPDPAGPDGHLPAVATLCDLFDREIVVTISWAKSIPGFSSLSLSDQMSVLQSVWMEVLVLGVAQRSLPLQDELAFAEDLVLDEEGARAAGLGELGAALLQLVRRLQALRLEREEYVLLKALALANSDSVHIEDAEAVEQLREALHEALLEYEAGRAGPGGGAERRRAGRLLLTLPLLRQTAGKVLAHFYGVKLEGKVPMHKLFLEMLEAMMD
Procedure: The protein-protein interactions between the full-length PNRC or PNRC fragments and SF1, ERRα1, and several other nuclear receptors were analyzed by yeast two-hybrid assays. The yeast two-hybrid assay was used to test if PNRC also interacts with other members of the nuclear receptor superfamily. pGBT9-ERRα-1 yeast expression plasmid was prepared by inserting the PCR-amplified ERRA-1 coding region into pGBT9 through an EcoRI site. To construct the plasmid pGBT9-ER274-595, the coding sequence from amino acids 274 to 595 (LBD) of ERα was amplified by PCR with the sense primer 5′-[…]-3′ (SEQ ID NO:1) and antisense primer 5′-[…]-3′ (SEQ ID NO:2) and cloned into the EcoRI/,SalI site of the pGBT9 yeast expression plasmid. pSG5-GRIP1 and several yeast expression plasmids coding for fusion proteins of Gal4-DBD and HBDs of AR, GR, PR, TR, RAR, and RXR in pGBT9 vector were kindly provided by Dr. Michael R. Stallcup (University of Southern California, Los Angeles, Calif.) (Voegel et al., 1996; Hong et al., 1996; Ding et al., 1998). The yeast mating approach was used in yeast two-hybrid assays to study protein-protein interactions as described in Clontech's protocol. Briefly, pGBT9 (DNA-BD vector only), pGBT9/target plasnmids for SF1, ERRα1, and other HBDs of nuclear receptors, and DNA-BD/control plasmids (as negative control) were introduced into the reporter strain Y187, and the AD vector alone or wild type PNRC and its deleted fragments-containing pACT2 derivatives were used to transform yeast strain CG1945. The yeast mating was performed by picking one colony from each type and growing both colonies in liquid YPD medium with or without a proper ligand at the following concentrations: 100 nM of estradiol for ER; 10 μM of deoxycorticosterone for GR; 100 nM of dihydrotestosterone for AR; 500 nM of progesterone for PR; 10 μM of T3 for TR; 10 μM of all-trans-retinoic acid for RAR; and 10 μM of 9-cis-retinoic acid for RXR. The same amount of an aliquot of the mating culture was spread on both SD/-Leu/-Trp plates to select diploid strains bearing both plasmids and SD/-Leu/-Trp/-His/+3-AT plates to score the growth of the diploid cells that express the two interacting target proteins. The His3 positive colonies were further analyzed for β-galactosidase activity by liquid β-galactosidase activity measurement as essentially described in the protocol.
Yeast strains Y187 expressing the Gal4DB fusion to the nuclear receptors and CG1945expressing Gal4AD alone or Gal4AD-PNRC fusion protein were mated by co-culturing, and selected for the presence of both two-hybrid plasmids. The expression of interacting hybrid proteins in yeast diploids was analyzed to determine if there was induction of HIS3 expression as shown in FIG. 1A and LacZ expression as shown in FIGS. 1B and 1C. […] As shown in FIGS. 1A-C, PNRC also interacted specifically with all seven nuclear receptor HBDs, including ER, AR, GR, TR, PR, RAR and RXR, and these interactions were completely ligand-dependent. […] However, no interactions occurred either between PNRC and an irrelevant protein such as human lamin C protein or between nuclear receptors and Gal4activation domain alone.

[2] = target: SF1 (Bos taurus, UniProt Q04752); assay: Mammalian two-hybrid assay in SK-BR-3 cells (CAT reporter); format: cell-based, bovine; parameters: expressed in transfected cells; host or cells: SK-BR-3; conditions: pM-SF1 + pVP16-PNRC + pG5CAT
Procedure: The Mammalian MatchMaker two-hybrid assay system (Clontech) was used to confirm the interaction between PNRC and SF1 that was identified in the yeast assays. Because the assays are performed in mammalian cells, proteins are more likely to be in their native conformations, and the results are therefore more likely to represent biologically significant interactions. SK-BR-3 breast cancer cells were cotransfected with three expression plasmids, including pM-SF1 for Gal4 DNA-DB/SF1 fusion protein, pVP16-PNRC for VP16AD-PNRC fusion protein, and a third vector, pG5CAT, to provide the Gal4 DNA-binding site, a promoter, and the CAT reporter gene.
A set of plasmids, named pM-SF1, pVP16-PNRC, pVP16-PNRC270-327, and pVP16-PNRC278-300, for mammalian two-hybrid assays were prepared as follows: SF1 cDNA fragment was excised from pGBT9-SF1 and inserted in frame into Gal4 DNA-binding domain vector pM (Clontech) through an EcoRI site. PCR was used to generate PNRC full length coding region as well as the above mentioned deleted fragments with BclI at both ends. The PCR products were digested with BclI and inserted in proper reading frame into a pVP16 activation domain vector (Clontech) at a BamHI site. Mammalian two-hybrid assays in SK-BR-3 cells were performed according to the procedures described in the Clontech protocol (PT3002-1).

Chain of SF1 (Q04752 whole entry, the tested form may be a part): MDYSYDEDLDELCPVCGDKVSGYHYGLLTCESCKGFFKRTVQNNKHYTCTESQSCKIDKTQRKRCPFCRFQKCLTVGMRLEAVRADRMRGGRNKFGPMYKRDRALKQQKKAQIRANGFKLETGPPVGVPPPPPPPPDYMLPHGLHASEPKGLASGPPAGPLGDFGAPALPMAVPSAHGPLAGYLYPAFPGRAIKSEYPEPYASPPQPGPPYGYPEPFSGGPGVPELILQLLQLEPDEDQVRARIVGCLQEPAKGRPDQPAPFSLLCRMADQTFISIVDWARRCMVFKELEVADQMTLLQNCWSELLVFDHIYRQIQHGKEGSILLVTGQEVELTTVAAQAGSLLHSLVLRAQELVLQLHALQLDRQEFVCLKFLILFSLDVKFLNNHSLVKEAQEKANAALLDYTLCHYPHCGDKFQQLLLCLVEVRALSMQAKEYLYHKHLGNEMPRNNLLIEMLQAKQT

CAT activity relative to cells transfected with only CAT reporter plasmid [2]: 5-6 fold
Substance: PNRC: proline-rich nuclear receptor co-regulatory protein, 327 aa, SEQ ID NO:8, nuclear receptor coactivator
interaction with ERRα1 [1]: interacted with orphan receptors SF1 and ERRα1 in the absence of any added activator or ligand
